From PMC4262734

Biological target: HA-Cdk2 (UniProt P24941)
Experiment: co-IP; HeLa cells co-overexpressing wild-type or mutant Flag-p27Xic1 with HA-Cdk2; binding quantified against wild type (mean ± SEM)

Substance Flag-p27Xic1 T68E (natural protein) has a reduction of binding against wild-type p27Xic1 of 50%.
In the case of Flag-p27Xic1 T68A (natural protein), the increase of binding against wild-type p27Xic1 is reported as 140%.
